The values below are quoted from earlier work in publication PMC11195831.

The series has as its target PD-1 (Homo sapiens) (UniProt Q15116). As to the kind of experiment: SPR.

Sequence of PD-1 (Homo sapiens) (Q15116 25-170): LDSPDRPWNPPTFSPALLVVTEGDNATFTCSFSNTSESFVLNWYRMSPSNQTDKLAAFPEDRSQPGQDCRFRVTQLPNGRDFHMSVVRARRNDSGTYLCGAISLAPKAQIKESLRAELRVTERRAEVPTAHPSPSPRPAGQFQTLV

The Kd is the free concentration of one partner at which half of the binding sites on the other are occupied at equilibrium, for simple one-to-one binding. With Retifanlimab, the Kd is 0.6 nM. Regarding Dostarlimab, the Kd was 0.3 nM.
